Laboratory results published in IntAct's records for PubMed 29415205.

B1: Glycine--tRNA ligase (Homo sapiens), P41250 (parent)
chain: MPSPRPVLLRGARAALLLLLPPRLLARPSLLLRRSLSAASCPPISLPAAASRSSMDGAGAEEVLAPLRLAVRQQGDLVRKLKEDKAPQVDVDKAVAELKARKRVLEAKELALQPKDDIVDRAKMEDTLKRRFFYDQAFAIYGGVSGLYDFGPVGCALKNNIIQTWRQHFIQEEQILEIDCTMLTPEPVLKTSGHVDKFADFMVKDVKNGECFRADHLLKAHLQKLMSDKKCSVEKKSEMESVLAQLDNYGQQELADLFVNYNVKSPITGNDLSPPVSFNLMFKTFIGPGGNMPGYLRPETAQGIFLNFKRLLEFNQGKLPFAAAQIGNSFRNEISPRSGLIRVREFTMAEIEHFVDPSEKDHPKFQNVADLHLYLYSAKAQVSGQSARKMRLGDAVEQGVINNTVLGYFIGRIYLYLTKVGISPDKLRFRQHMENEMAHYACDCWDAESKTSYGWIEIVGCADRSCYDLSCHARATKVPLVAEKPLKEPKTVNVVQFEPSKGAIGKAYKKDAKLVMEYLAICDECYITEMEMLLNEKGEFTIETEGKTFQLTKDMINVKRFQKTLYVEEVVPNVIEPSFGLGRIMYTVFEHTFHVREGDEQRTFFSFPAVVAPFKCSVLPLSQNQEFMPFVKELSEALTRHGVSHKVDDSSGSIGRRYARTDEIGVAFGVTIDFDTVNKTPHTATLRDRDSMRQIRAEISELPSIVQDLANGNITWADVEARYPLFEGQETGKKETIEE

Variants of: B1
Conditions: with hdac6_human HDAC6, Q9UBN7
Chain of hdac6_human HDAC6, Q9UBN7 (Q9UBN7 whole entry): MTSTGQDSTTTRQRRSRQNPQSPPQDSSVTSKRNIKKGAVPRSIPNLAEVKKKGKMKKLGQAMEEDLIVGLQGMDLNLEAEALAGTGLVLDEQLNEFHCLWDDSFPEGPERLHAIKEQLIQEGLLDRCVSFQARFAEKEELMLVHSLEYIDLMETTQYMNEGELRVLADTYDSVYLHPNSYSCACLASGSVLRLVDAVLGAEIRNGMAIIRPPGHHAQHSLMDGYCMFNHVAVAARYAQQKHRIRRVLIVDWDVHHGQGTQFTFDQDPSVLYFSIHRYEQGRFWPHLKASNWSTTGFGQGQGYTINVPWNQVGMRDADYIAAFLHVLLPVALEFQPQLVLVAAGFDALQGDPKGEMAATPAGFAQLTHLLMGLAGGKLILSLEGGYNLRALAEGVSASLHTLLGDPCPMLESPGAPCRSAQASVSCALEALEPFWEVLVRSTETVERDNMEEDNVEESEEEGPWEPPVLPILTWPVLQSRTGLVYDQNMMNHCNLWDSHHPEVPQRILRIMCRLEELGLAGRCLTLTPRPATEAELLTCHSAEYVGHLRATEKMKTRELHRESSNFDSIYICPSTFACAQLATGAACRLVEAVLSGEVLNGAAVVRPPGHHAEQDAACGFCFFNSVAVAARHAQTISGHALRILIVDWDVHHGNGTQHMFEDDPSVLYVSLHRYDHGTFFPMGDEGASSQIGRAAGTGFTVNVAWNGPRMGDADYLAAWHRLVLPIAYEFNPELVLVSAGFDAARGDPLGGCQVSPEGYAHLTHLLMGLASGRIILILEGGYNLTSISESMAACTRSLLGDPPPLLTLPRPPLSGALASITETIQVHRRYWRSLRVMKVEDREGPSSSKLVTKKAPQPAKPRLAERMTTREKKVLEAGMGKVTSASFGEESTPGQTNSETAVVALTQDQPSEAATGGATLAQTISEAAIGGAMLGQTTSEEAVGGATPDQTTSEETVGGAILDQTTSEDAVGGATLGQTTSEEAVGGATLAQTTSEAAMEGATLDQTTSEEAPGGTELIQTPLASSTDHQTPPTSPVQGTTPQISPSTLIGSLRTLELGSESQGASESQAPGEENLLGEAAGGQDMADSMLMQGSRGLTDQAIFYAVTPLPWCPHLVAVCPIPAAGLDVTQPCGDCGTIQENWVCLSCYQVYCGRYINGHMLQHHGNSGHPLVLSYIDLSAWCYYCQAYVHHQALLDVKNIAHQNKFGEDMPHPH

Row | Variant | effect of a mutation on the interaction
1 | C211R | with no effect
